Test results from patent US20140112930A1 (published 2014).
Positions count from the first letter of the chain named. Blank lines part the entries; values can stand above or below the binder they belong to.

Legend:
[1] = biological target: T1, Biotin-hBA2 (human, biotinylated (sites not given)); assay: blocking ELISA, biotin-hBA2 to hTie-2-His, mean of two experiments
T1 construct: hBA2 consists of two dimers; also called biotinylated hBA2; human bow-Ang2
Description: (§1) The plate was then blocked with PBS (Irvine Scientific, Santa Ana, Calif.) containing 0.5% BSA (Sigma-Aldrich Corp., St. Louis, Mo.) for one hour at room temperature. […] Human, mouse or monkey Ang-2FD protein conjugated to human IgG (Ang-2FD-hFc) were added to final concentrations of 2 nM, 8 nM, or 2 nM respectively and incubated for one hour at room temperature. The antibody/Ang-2FD-Fc mixture was then added to the plate containing hTie-2-mFc and incubated for one hour at room temperature. Detection of Ang-2FD-hFc bound to hTie-2-mFc protein was determined with Horse-Radish Peroxidase (HRP) conjugated to a-human IgG antibody (Jackson Immuno Research Lab, West Grove, Pa.) and developed by standard colorimetric response using tetramethylbenzidine (TMB) substrate (BD Biosciences, San Jose, Calif.). Absorbance was read at OD₄₅₀ for 0.1 sec.
For this experiment, human Tie-2 conjugated to a histidine tag (hTie-2-His; SEQ ID NO:526) was used in a similar fashion to the hTie-2-mFc described above. Antibody concentrations from 5 nM were serially diluted three-fold. […] An average IC₅₀ value for each antibody was calculated based on two separate experiments.

[2] = biological target: T1, Biotin-hBA2; assay: blocking ELISA, biotin-hBA2 to hTie-2
[3] = biological target: T2, Human Ang-2FD-hFc (human); assay: blocking ELISA, 16.67 nM antibody, Ang-2FD-hFc to coated hTie-2-mFc
T2 construct: also called dimeric human Ang-2FD; human Ang-2FD protein conjugated to human IgG
T2 sequence (chain, as listed by the source limits assumed): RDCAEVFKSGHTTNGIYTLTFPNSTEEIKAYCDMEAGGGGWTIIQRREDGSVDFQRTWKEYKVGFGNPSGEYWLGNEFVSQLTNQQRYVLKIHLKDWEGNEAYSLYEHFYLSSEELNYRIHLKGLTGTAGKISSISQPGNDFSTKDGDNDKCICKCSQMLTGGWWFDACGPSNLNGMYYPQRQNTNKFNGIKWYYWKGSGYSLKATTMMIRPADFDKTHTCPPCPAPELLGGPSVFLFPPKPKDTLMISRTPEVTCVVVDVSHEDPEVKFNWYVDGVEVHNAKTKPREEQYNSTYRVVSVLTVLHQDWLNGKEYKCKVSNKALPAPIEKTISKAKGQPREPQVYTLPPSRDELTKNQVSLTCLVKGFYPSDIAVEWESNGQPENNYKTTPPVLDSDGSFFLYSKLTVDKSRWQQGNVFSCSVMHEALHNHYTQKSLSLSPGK
Description: as §1

[4] = biological target: T3, Mouse Ang-2FD-hFc (mouse (Mus musculus)); assay: as above
T3 construct: also called dimeric mouse Ang-2FD
T3 sequence (chain, as listed by the source limits assumed): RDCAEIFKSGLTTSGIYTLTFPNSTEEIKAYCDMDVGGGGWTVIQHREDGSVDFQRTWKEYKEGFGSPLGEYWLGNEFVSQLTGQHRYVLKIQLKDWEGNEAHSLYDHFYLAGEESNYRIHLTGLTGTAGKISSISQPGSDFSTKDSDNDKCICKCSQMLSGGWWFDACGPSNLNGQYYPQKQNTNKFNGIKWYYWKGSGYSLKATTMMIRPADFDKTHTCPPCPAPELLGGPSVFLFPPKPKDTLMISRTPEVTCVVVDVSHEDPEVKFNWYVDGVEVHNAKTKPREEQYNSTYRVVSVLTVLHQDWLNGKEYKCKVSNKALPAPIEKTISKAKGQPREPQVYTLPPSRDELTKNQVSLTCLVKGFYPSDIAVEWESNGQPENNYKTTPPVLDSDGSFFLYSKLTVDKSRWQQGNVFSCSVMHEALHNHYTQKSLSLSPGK
Description: as §1

[5] = biological target: T4, Dimeric Mouse Ang-2FD conjugated to human IgG1 (mouse (Mus musculus); human); assay: SPR, captured Ab, 25°C
T4 construct: also called Mouse Ang-2FD-hFc
Description: (§2) Each selected antibody or control construct was captured at a flow rate of 40 μL/min for 1 minute on a goat anti-human kappa polyclonal antibody surface created through direct chemical coupling to a BIACORE™ chip to form a captured antibody surface.

[6] = biological target: T4, Dimeric Mouse Ang-2FD conjugated to …; assay: SPR, captured Ab, RT
Procedure, shortened: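 Antibody captured on amine-coupled goat anti-mouse IgG, anti-human κ or anti-human IgG polyclonal surfaces on a CM5 chip; antigen binding and dissociation followed in real time at room temperature. KD and complex dissociation half-life derived by kinetic analysis.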

[7] = biological target: T4, Dimeric Mouse Ang-2FD conjugated to …; assay: SPR, captured Ab, 37°C
Description: as §2

[8] = biological target: T5, Monkey Ang-2FD-hFc (monkey (Macca fascicularis)); assay: blocking ELISA, 16.67 nM antibody, Ang-2FD-hFc to coated hTie-2-mFc
T5 construct: also called dimeric monkey Ang-2FD
T5 sequence (chain, as listed by the source limits assumed): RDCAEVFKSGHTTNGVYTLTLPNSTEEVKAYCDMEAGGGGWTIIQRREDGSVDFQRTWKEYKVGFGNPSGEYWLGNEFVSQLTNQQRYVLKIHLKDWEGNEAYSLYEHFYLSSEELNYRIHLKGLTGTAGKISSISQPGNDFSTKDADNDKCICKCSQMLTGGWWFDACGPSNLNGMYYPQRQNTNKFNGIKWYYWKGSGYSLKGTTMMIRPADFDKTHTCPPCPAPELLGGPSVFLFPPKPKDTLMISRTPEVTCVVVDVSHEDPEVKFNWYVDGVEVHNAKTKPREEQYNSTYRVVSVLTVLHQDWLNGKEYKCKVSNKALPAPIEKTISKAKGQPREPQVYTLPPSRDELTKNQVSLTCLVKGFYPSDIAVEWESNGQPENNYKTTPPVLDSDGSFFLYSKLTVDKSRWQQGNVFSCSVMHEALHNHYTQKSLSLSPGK
Description: as §1

T1 sequence (chain, as listed by the source limits assumed): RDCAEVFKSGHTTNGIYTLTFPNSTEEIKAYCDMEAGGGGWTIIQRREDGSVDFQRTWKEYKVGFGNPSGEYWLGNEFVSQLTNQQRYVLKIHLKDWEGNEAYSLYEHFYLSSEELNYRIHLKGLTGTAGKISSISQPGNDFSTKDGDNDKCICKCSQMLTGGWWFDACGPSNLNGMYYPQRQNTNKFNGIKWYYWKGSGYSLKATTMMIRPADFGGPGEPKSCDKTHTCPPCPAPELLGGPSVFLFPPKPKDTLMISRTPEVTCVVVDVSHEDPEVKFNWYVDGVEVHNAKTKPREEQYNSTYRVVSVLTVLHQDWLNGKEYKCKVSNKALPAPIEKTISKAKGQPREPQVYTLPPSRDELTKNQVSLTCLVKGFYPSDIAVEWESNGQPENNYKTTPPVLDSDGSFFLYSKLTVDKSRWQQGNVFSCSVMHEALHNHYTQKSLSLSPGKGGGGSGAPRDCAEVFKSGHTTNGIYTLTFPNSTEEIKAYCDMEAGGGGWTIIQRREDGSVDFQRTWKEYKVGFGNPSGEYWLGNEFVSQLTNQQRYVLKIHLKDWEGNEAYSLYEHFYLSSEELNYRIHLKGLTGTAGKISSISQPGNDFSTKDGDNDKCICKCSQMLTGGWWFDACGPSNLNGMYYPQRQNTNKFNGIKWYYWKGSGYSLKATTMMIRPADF

B2: H1H695P (antibody, human IgG1, V domains shown)
VH: QVQLVESGGGVVQPGRSLRLSCAASGFTFSSYGMHWVRQAPGKGLEWVAVMWYDETNKYYADSVKGRFTISRDNSKNTLYLQMNSLRAEDTAVYYCARYSGYEDYYHGMDVWGQGTTVTVS
VL: EIVMTQSPATPSVSPGERATLSCRASQSISSNLAWYQQKPGQAPRLLIYGASTRATGIPARFSGSGSGTEFTLTISSLQSEDFAVYYCQHYNNWITFGQGTRLEIK
notes: Human IgG1
IC50 [2]: 0.059 nM
Percent Blocking of Ang-2FD Binding to Tie-2 [3]: 98.4%
Percent Blocking of Ang-2FD Binding to Tie-2 [4]: 97.6%

B3: H1M749N (antibody, V domains shown)
VH: QVQLVESGGGVVQPGRSLRLSCAASGFTFSSYGMHWVRQAPGKGLEWVAVIWYDEFNKYYADSVKGRFTISRDNSKNTLYLQMNSLRAEDTAVYYCARERESGYSYGFDYWGQGTLVTVSS
VL: B2 VL with P11L, S26G, I29V, H90Q, I95W, R102K, L103V
notes: also called H2M749N
IC50 [1]: 0.00643 nM

B4: H1H685P (antibody, V domains shown)
VH: EVQLVESGGGLVQPGGSLRLSCAASGFTFSSYDIHWVRQATGKGLEWVSAIGPAGDTYYPGSVKGRFTISRENAKNSLYLQMNSLRAGDTAVYYCARGLITFGGLIAPFDYWGQGTLVTVSS
VL: EIVLTQSPGTLSLSPGERATLSCRASQSVSSTYLAWYQQKPGQAPRLLIYGASSRATGIPDRFSGSGSGTDFTLTISRLEPEDFAVYYCQHYDNSQTFGQGTKVEIK
Kd [5]: 0.0651 nM
T1/2 [5]: 3.47 h
Kd [6]: 0.148 nM
T1/2 [6]: 2.14 h
Kd [7]: 0.0939 nM
T1/2 [7]: 1.07 h

B5: H1H691P (antibody, human IgG1, V domains shown)
VH: EVQLVESGGGLVQPGRSLRLSCAASGFTFDDYAMHWVRQAPGKGLEWVSGISWNSGDIGYADSVKGRFTISRDNAKNSLYLQMNSLRAQDTALYYCAKAYGDYYYFYGMDVWGQGTTVTVS
VL: B4 VL with T32S, Y50F, G51S, H91Q, Q96L, Q100G
notes: Human IgG1
Percent Blocking of Ang-2FD Binding to Tie-2 [3]: 97.4%
Percent Blocking of Ang-2FD Binding to Tie-2 [8]: 99.8%
Percent Blocking of Ang-2FD Binding to Tie-2 [4]: 96.7%

B6: H1H690P (antibody, human IgG1, V domains shown)
VH: EVQLVESGGGLVQPGESLRLSCAASGFTFSSYAMSWVRQGPGKGLEWVSSITGSGDTTYYADSVKGRFTISRDNSKNTLYLHMNSLRAEDTAVYYCAKDFLDYSTYLAFDLWGQGTMVTVSS
VL: EIVLTQSPATLSLSPGERATLSCRASQSVSSYLTWYQQKPGQAPRLLSYDASNRATGIPARFSGSGSGTDFTLTISSLEPEDFAVYYCQQRSNWPLTFGGGTKVEIK
notes: Human IgG1
IC50 [2]: 0.017 nM
Percent Blocking of Ang-2FD Binding to Tie-2 [3]: 97.2%
Percent Blocking of Ang-2FD Binding to Tie-2 [8]: 99.6%
Percent Blocking of Ang-2FD Binding to Tie-2 [4]: 98%

B7: H1H704P (antibody, V domains shown)
VH: QVQLVESGGDVVQPGRSLRLSCAASGFTFSSYGMHWVRQAPGKGLEWVAIIWYDGSNKYYADSVKGRFTISRDNSKNTLYLQMNSLRVEDTAVYSCARDFSISSRHFDYWGQGTLVTVSS
VL: DIQMTQSPSSLSASVGDRVTITCRASQAINNYLAWFQQKPGKAPKSLIYATSNLQSGVPSQFSGSGSGTDYTLTISSLQPEDFATYYCQQYYIYPITFGQGTRLEIK
notes: Human IgG1
IC50 [2]: 0.056 nM
Percent Blocking of Ang-2FD Binding to Tie-2 [3]: 97%
Percent Blocking of Ang-2FD Binding to Tie-2 [4]: 41.8%

B8: H2M742N (antibody, V domains shown)
VH: DVQLLESGGDLVQPGGSLRLSCEASGFTFRNYVMIWVRQAPGKGLEWVSGISNSGGTTHYTDSVKGRFTISRDNSKNTLYLQINSLRAEDTAVYYCAKGYLDTSLIEGNWFDPWGQGTLVTVSS
VL: NIVMTQSPLSLPVTPGEPASISCRSSQSLLHSNGFNYLNWFLQKPGQSPQLLIYLGSNRASGVPDKFSGSGSGTDFTLNINRVEAEDVGIYFCMQTLQTPLTFGGGTKVEIK
notes: also called H1M742N
IC50 [1]: 0.00965 nM

B9: H1M732N (antibody, V domains shown)
VH: EVQLVESGGGLVRPGGSLRLSCAASGFTFTNAWMSWVRQAPGKGLEWIGQIKSKTDGGTIDYAAPVKGRFTVSRDDSENTLFLQMNSLKTEDTAVYYCAGNWNYVDFDYWGQGTLVTVSS
VL: DIQMTQSPSSLSASVGDRVTITCRASQDIRNDLGWYQQKPGKAPKRLIYAASSLQGGVPSRFSGSGSGTEFTLTISSLQPEDFATYYCLQHNSYPFTFGPGTKVDIK
IC50 [1]: 0.0822 nM

Now from value to binder:

IC50 [1]: 0.00883 nM
B1: H2M750N (antibody, V domains shown)
VH: QVKLVESGGGVVQPGRSLRVSCAASGFTFSSYGMHWVRQAPGKGLEWLAIIWYDGDNKYYSDSVKGRFTISRDNSKNTLYLQMNSLRAEDTAEYYCVRDASIASRFLDYWGQGTLVTVSS
VL: DIQMTQSPSSLSASIGDRVTITCRATQDINNYLAWFQQKPGKAPKSLIYATSNLQSGVPSKFSGSGSGTDYTLTISSLQPEDFSTYYCQQYHSYPLTFGGGTKVEIK
notes: also called H1M750N; H1M750

IC50 [1]: 0.011 nM
B10: H2M743N (antibody, V domains shown)
VH: EVQLLESGGGLVQPGGSLRLSCAASGFTFRKYAMSWVRQAPGKGLEWVSVISVSGGNTYYADSVKGRFTISRDNSKNTLYLQLNSLRAEDTAVYYCAKDLTDIVLMVYVDYWGQGTLVTVSS
VL: DIQMTQSPSSVSASVGDRVTITCRASQDIDRWLAWYQQKPGKAPKLLIYAASSLQSGVPSRFSGSGSGTDFTLTISTLQPEDFATYYCQQANSLPFTFGGGTKVEIK
notes: also called H1M743N

IC50 [1]: 0.0114 nM
B11: H2M744N (antibody, V domains shown)
VH: QVQLVQSGVEVKKPGASVKVSCKTSGYTFSNNGFSWVRQAPGQGLEWLGWISGYNGNTNYAQKFQGRVTMTTDTSTSTAYMELRTLRSDDTAVYYCARDQDYSNFHWLDPWGQGTLVTVAS
VL: DIQMTQSPSSVSASVGDRVIITCRASQGLSSWLAWYQQKPGTAPKLLIHSASSLQTGVPSRFSGSGSGTEFALTINSLQPEDFGTYYCQQANSFPLTFGGGTRVEIK
notes: also called H1M744N; H1M744
